# Data as given in article PMC4957108.
# Experiments:
# [1] = target: CagA-C1164S (Helicobacter pylori strain 26695) (UniProt P55980); test: AUC; sedimentation velocity, 20 °C, 10 mM HEPES pH 7.7, 150 mM NaCl, 1 mM EDTA; 5.5 μM CagA-CS, 11 μM PAR1b (39–364), alone or mixed; c(s) by SEDFIT
# [2] = target: GST-CagA-1CM^W2 (Helicobacter pylori strain 26695) (UniProt P55980); test: pull-down; quantitative GST pull-down: GST-CagA on beads in a range of concentrations, fixed low concentration of PAR1b (39–364)-FLAG, GST-binding buffer with 0.01% Triton-X, 20 min at 4 °C, unbound PAR1b in the supernatant quantified, binding to GST control subtracted; apparent KD
# [3] = target: GST-CagA-1CM^E (Helicobacter pylori strain 26695) (UniProt P55980); test: as above
# [4] = target: GST-CagA-1CM^W1 (Helicobacter pylori strain 26695) (UniProt P55980); test: as above
Substance,stoichiometry N (PAR1b per CagA) [1],Kd [2],Kd [3],Kd [4]
PAR1b (39–364) (from UniProt Q7KZI7-14 39-364) (domain or fragment),2,–,–,–
PAR1b (39–364)-FLAG (from UniProt Q7KZI7-14 39-364) (domain or fragment),–,106 nM,46.4 nM,90.3 nM
